B1: CPEB3 Ribozyme (parent)
chain: UAACAGGGGGCCACAGCAGAAGCGUUCACGUCGCAGCCCCUGUCAGAUUCUGGUGAAUCUGCGAAUUCUGCUGUAUAUCUC

Variants of: B1
Assay: self-cleavage, relative activity (ratio to wild type); higher = more cleavage; in vitro, sequencing
Method in brief: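 Barcoded CPEB3 ribozyme mutants, produced by rounds of error-prone PCR, self-cleaved while being transcribed with T7 RNA polymerase for 5 hours at 37°C and during a subsequent 15 min DNase I step before EDTA was added. Sequencing of template-switched cDNA on Illumina gave cleaved and total reads, and DNA sequencing assigned barcodes to variants. Each variant's relative activity is its cleaved/total read fraction divided by the unmutated ribozyme's fraction, averaged across three batches. A variant needed a minimum of 5 reads.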

Point of comparison: U48C U58G, self-cleavage 0.25. Against it:
- U48A U60C — lower, 0.14
- U48A U60A — higher, 0.31
- U48A U60G — lower, 0.19
- U49C A75U — higher, 0.62
- U49C A75C — higher, 0.55
- U49C A75G — higher, 0.4
- U48G U66C — higher, 0.45
- U49A C62U — higher, 0.44
- U49A C62A — higher, 0.26
- U48C A56U — higher, 0.38
- U48C A56C — higher, 0.33
- U48C A56G — higher, 0.38
- U48C A77C — higher, 0.61
- U48C A77U — higher, 0.65
- U48C A77G — higher, 0.6
- U48C — higher, 0.65
- U48G — higher, 0.5
- U48A — higher, 0.48
- U49C U51A — higher, 0.49
- U49C U51C — higher, 0.38
- U49C U51G — higher, 0.36
- U49A U54G — higher, 0.27
- U49A U54A — higher, 0.81
- U49A U54C — higher, 0.54
- U49A G52A — higher, 0.84
- U49G G55U — higher, 0.88
- U48C U80A — higher, 0.68
- U48C U80C — higher, 0.68
- U48G A64U — lower, 0.17
- U48G A64G — higher, 0.45
- U48G U76A — higher, 0.43
- U48A C62U — higher, 0.43
- U49A A64U — the same, 0.25
- U49A A64G — higher, 0.51
- U49C U80C — higher, 0.61
- U49C U80G — higher, 0.49
- U49C U80A — higher, 0.51
- U49A C59A — higher, 0.34
- U49A C59U — lower, 0.19
- U49A C71G — lower, 0.24
- U49A C71U — higher, 0.26
- U48G U69A — lower, 0.21
- U48G U69C — higher, 0.34
- U48A U69G — higher, 0.34
- U48A U69C — higher, 0.44
- U48A U69A — lower, 0.18
- U48C U49A — higher, 0.48
- U48C U49G — higher, 0.29
- U48C U49C — higher, 0.32
- U49C A56U — higher, 0.48
- U49C A56G — higher, 1.04
- U49C A56C — higher, 0.42
- U48G A65G — lower, 0.23
- U48A A64U — lower, 0.14
- U48A A64G — higher, 0.26
- U49C U74G — higher, 0.59
- U49C U74A — higher, 0.71
- U49C U74C — higher, 0.65
- U49A A77U — higher, 0.9
- U49A A77G — higher, 0.46
- A47U U78C — higher, 0.57
- A47U U78A — higher, 0.7
- U49C U78C — higher, 0.42
- U49C U78A — higher, 0.46
- U49C U78G — higher, 0.39
- A47U U80C — higher, 0.66
- A47U U80G — higher, 0.8
- A47U U80A — higher, 0.51
- U49C G63A — higher, 0.39
- U49C G63U — higher, 0.35
- U48A U76C — higher, 0.67
- U48A U76A — higher, 0.5
- U49C C50U — higher, 0.87
- U49C C50G — higher, 0.82
- U49C C50A — higher, 0.78
- U49C A57U — higher, 0.33
- U49C A57G — higher, 0.35
- U48C C50A — the same, 0.25
- U48C C50U — higher, 0.54
- U49C A64U — lower, 0.24
- U49C A64C — higher, 0.26
- U49C A64G — higher, 0.27
- U49C G52A — higher, 0.8
- U48C G63A — higher, 0.64
- U48C G63C — higher, 0.47
- U48C G63U — higher, 0.57
- U49G A77G — higher, 0.39
- U49A U66A — lower, 0.24
- U49A U66C — higher, 0.38
- U48C U66A — higher, 0.44
- U48C U66C — higher, 0.27
- U49A G73A — higher, 1.28
- U49C C68A — lower, 0.15
- U49C C68U — lower, 0.24
- U48G U72A — higher, 0.44
- U48G U72C — higher, 0.44
- U48C U74G — higher, 1.02
- U48C U74A — higher, 0.88
- U48C U74C — higher, 1.02
- U48G U67A — higher, 0.38
- U48C U60G — higher, 0.33
- U48C U60C — higher, 0.26
- U48C U60A — higher, 0.26
- U48C C79U — higher, 0.88
- U48C C79A — higher, 0.89
- U48C C79G — higher, 0.74
- U48G A75G — higher, 0.3
- U48A A56G — higher, 0.33
- U48A A56U — higher, 0.31
- U48A A56C — higher, 0.26
- U48C G53A — higher, 0.69
- U48C A64C — lower, 0.18
- U48C A64G — higher, 0.41
- U48C A64U — higher, 0.27
- U48C U58C — higher, 0.34
- U48C U58A — lower, 0.23
- U49G C81U — higher, 0.77
- U49A U60C — higher, 0.32
- U49A U60A — lower, 0.21
- U48C U78G — higher, 0.94
- U48C U78C — higher, 0.54
- U48C U78A — higher, 0.86
- U48A C79G — higher, 0.73
- U48G U80C — higher, 0.6
- U49C U76A — higher, 0.49
- U49C U76C — higher, 0.48
- U49C U67G — higher, 0.32
- U49C U67A — higher, 0.28
- U49C U67C — lower, 0.23
- U49C C81A — higher, 0.76
- U49C C81U — higher, 0.68
- U49C C81G — higher, 0.51
- U48G U51C — higher, 0.53
- A47U U74G — higher, 0.96
- A47U U74A — higher, 0.64
- A47U U74C — higher, 1.14
- U49C U72A — higher, 0.26
- U49C U72C — higher, 0.36
- U49C U72G — higher, 0.26
- U49A U69C — higher, 0.44
- U49A U69A — higher, 0.34
- U49A U69G — higher, 0.61
- U49A C50A — higher, 0.5
- U48C C59U — higher, 0.39
- U48C C59A — lower, 0.19
- A47U U51A — higher, 0.4
- A47U U51G — higher, 0.47
- A47U U51C — higher, 0.43
- U48C G73C — higher, 1.23
- U48C G73U — higher, 0.95
- U49A C79U — higher, 1.07
- U49C G53C — higher, 0.44
- U49C G53A — higher, 0.52
- U48A U49A — higher, 0.38
- U48A U49G — lower, 0.21
- U48A U49C — higher, 0.3
- U49A G53A — higher, 0.79
- U48G A57G — higher, 0.4
- U48G A57U — higher, 1.07
- U48G A57C — higher, 1.11
- A47U U69C — higher, 0.33
- A47U U69A — higher, 0.34
- U48A C50U — higher, 0.35
- U49A U58C — higher, 0.33
- U49A U58A — lower, 0.21
- U49G C79U — higher, 0.77

Source: the RNAGym collection of RNA variant scans (doi:10.1093/nar/gkz1192)
